Four molecules from patent publication US20130156779A1 (GlaxoSmithKline, published 2013) can be followed below.

The Kd is the equilibrium constant for the complex coming apart. In general, koff refers to a measure of how fast the partners let go of each other. What is called kon is the rate constant with which the complex forms.

The target in experiment [1] is T1, Human HER3 receptor (human, UniProt P21860 20-1342). Put plainly: cell-based or functional assay.
The target of experiment [2] is T2, Full-length human HER3 extracellular domain (ECD) (human, UniProt P21860 20-643).
T2 construct: also called human HER3 ECD; HER-3 ECD full length
Put plainly: BIACORE SPR, mAb captured on protein A, ECD as analyte, 25 C. As for the experimental part: (§1) Protein A was immobilised on a CM5 chip by primary amine coupling to a level of ˜1300 resonance units (RU′s), humanized antibodies were then captured on this chip, All antibodies were captured to a similar level (100-200 RU's). […] Alternatively, the full-length, rat HER3 ECD or the full-length cynomolgus monkey ECD were passed over the chip at 10 nM, 5 nM, 2.5 nM, 1:25nM, 0.625 nM and 0.3125nM. An injection of buffer alone was used to double reference the binding curves as indicated in Example 1. Regeneration of this surface was achieved using 10 mM Glycine buffer pH 1.5. The binding data was fitted to the 1:1 model using BIACORE™ Evaluation software. Runs were carried out at 25° C. on a BIACORE™ T3000 using HBS-EP as running buffer.

Experiment [3] deals with T3, Full-length rat HER3 extracellular domain (ECD) (rat, UniProt Q62799 20-643).
T3 construct: extracellular domain; also called Rat HER3 ECD
The description is as above. The protocol: as §1

The target of experiment [4] is T4, Full-length cynomolgus monkey HER3 extracellular domain (ECD) (cynomolgus monkey, UniProt G7PIG5 20-643).
T4 construct: extracellular domain; also called Cynomolgus monkey HER3 ECD
Described as above. As for the experimental part: as §1

The target in experiment [5] is T1, Human HER3 receptor. Nature of the experiment: cell-based or functional assay. The source holds these as a separate data set.
Experiment [6] deals with T2, Full-length human HER3 extracellular …. Nature of the experiment: BIACORE SPR, mAb captured on protein A, ECD as analyte, 25 C. The protocol:
as §1
This is another data set of the same source. A general note: SPR reads the build-up and loss of mass on a sensor chip optically.

The target in experiment [7] is T5, Human HER3 ECD domain II (human, UniProt P21860 184-329).
T5 construct: also called D2; Domain 2
Nature of the experiment: DELFIA, plate coated with HER3 Domain II 1ug/ml. As for the experimental part:
Dissociation Enhanced Lanthanide Fluorescence Immunoassay (DELFIA) for detection of the anti-HER3 antibodies to HER3 extracellular domain (ECD) was used. The DELFIA procedures were as follows: white Maxisorp 96-well plates (Nunc #437796) were coated with 100 ul/well of 1 ug/ml HER-3 ECD full length or HER3Domain I, II, III and IV in 0.1M carbonate buffer pH 9.5 overnight at 4° C. These plates were blocked with casein in TBS (Thermo Scientific #37532 lot#JD121074). The neat hybridoma supernatant, or the purified anti-HER3 antibodies diluted in Perkin Elmer #4002-0010 Assay Buffer from 10 ug/ml (or 100 ug/ml) to 0.01 ug/ml, or the PK serum samples with a minimum of 3 dilutions (100 ul/well) were added to the plate. These samples were incubated for 2 hours at room temperature while on a plate shaker or overnight at 4° C. […] The plate was washed 4 times with tris-buffer plus 0.05% tween-20 (Perkin Elmer #4010-0010) on a BIOTEK™ plate washer following each antibody incubation step. 100 ul/well of DELFIA enhancement solution (Perkin Elmer 1244-105) was added for 5 minutes at room temperature. […] Antibody binding was recorded as europium counts per well.

For experiment [8], the target named is T1, Human HER3 receptor. Put plainly: cell-based or functional assay. The source holds these as a separate data set.
In experiment [9] the target is T2, Full-length human HER3 extracellular …. Nature of the experiment: BIACORE 3000 SPR, mAb captured by anti-human Fc, ECD as analyte, 25 C. The protocol:
The binding kinetics of these antibodies for was assessed using a BIACORE™ 3000. Antibodies were captured on a CM5 biosensor chip to which an immobilized anti-human IgG (Fc specific) BIACORE™ (GE Healthcare cat# BR-1008-39) monoclonal antibody had been conjugated using supplied coupling buffer (9000 RU). Full-length human HER3 ECD concentrations were injected for 120s at a flow rate of 30 ul/min. Biosensor chips were regenerated as described in Example 1. Kinetics were determined by global fitting of data to the 1:1 Langmuir model using BIACORE™ Evaluation software. Analytical runs were carried out at 25° C. using FIBS-EP as the running buffer.
Buffer cycle and double referencing were performed as described in Example 1; and 5) Regenerate biosensor chips with BIACORE™ optimized buffers.

Experiment [10] has as its target T5, Human HER3 ECD domain II. Put plainly: BIACORE 2000 SPR, mAb captured, HER3 protein as analyte, 25 C. The protocol:
(§2) Mouse monoclonal antibodies were analysed using rabbit anti-mouse (RAM) IgG (GE Healthcare BR-1008-38) covalently coupled to a BIACORE™ CM5 chip (GE HEalthcare BR-1000-14) by primary amine chemistry (NHS/EDC activated) (GE Healthcare amine coupling kit BR-1000-50). Chimeric and humanized competitor monoclonal antibodies were analyzed using anti-human, Fc specific monoclonal (GE Healthcare BR-1008-39) similarly coupled. Each chip was also prepared with a reference surface to which no capture reagent antibody is coupled. Sensorgrams for cycles run with differing analyte concentrations are acquired for kinetic analysis. A cycle consists of capturing the monoclonal on the surface, a short stabilization period with flowing run buffer followed by binding of a defined concentration of analyte (ECD or sub-domain protein). Injection of analyte for surface binding (3-4 minutes) yields the association part of curve. This is followed by buffer only flow (3-4 minutes) which allows recording of dissociation data.
(§3) The general method for affinity analysis is as follows. First, chips were prepared and tested for reasonance units (RU) captured for several monoclonal antibody concentrations. Kinetic cycles were then run in which monoclonal antibody was captured to a level of approximately 100RU, analyte protein was allowed to bind then dissociate and the surface was regenerated to remove all but covalently coupled protein. RAM chips were regenerated with capture kit supplied 100 mM glycine pH1.7 and anti-human chips with capture kit supplied 3M MgCl₂. […] Several buffer cycles were run prior to analyte protein to ensure cycle consistency and in some experiments a buffer cycle is used a “double reference[.]” Analytes used were human full length HER3 extra cellular domain (ECD), separate sub-domains of the extracellular portion of human HER3 (D1, D2, D3, D4), or combination HER3 domain proteins (D1-2 and D2-3).

The target of experiment [11] is T2, Full-length human HER3 extracellular …. The description is as above. As for the experimental part: as §2, §3
Experiment [12] deals with T5, Human HER3 ECD domain II. Nature of the experiment: affinity summary table, method not given.
Experiment [13] concerns the target T2, Full-length human HER3 extracellular …. Put plainly: affinity summary table, method not given.

T4 sequence (G7PIG5 entry or part of it): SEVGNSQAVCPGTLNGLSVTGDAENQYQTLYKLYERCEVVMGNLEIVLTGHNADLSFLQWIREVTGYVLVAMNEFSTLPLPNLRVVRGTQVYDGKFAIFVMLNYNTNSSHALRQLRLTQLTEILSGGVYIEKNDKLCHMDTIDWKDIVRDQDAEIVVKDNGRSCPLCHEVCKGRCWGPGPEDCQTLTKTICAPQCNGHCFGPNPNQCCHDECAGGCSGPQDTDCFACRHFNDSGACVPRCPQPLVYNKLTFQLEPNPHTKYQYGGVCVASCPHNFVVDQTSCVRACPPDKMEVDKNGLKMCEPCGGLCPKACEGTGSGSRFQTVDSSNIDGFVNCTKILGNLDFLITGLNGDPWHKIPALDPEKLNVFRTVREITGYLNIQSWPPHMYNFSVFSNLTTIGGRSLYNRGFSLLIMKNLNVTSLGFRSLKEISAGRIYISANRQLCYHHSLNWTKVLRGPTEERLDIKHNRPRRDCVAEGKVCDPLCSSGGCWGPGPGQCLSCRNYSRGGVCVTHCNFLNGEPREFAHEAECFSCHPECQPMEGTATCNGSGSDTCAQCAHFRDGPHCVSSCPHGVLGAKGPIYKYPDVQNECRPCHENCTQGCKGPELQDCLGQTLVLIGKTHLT
T1 sequence (P21860 20-1342 limits assumed): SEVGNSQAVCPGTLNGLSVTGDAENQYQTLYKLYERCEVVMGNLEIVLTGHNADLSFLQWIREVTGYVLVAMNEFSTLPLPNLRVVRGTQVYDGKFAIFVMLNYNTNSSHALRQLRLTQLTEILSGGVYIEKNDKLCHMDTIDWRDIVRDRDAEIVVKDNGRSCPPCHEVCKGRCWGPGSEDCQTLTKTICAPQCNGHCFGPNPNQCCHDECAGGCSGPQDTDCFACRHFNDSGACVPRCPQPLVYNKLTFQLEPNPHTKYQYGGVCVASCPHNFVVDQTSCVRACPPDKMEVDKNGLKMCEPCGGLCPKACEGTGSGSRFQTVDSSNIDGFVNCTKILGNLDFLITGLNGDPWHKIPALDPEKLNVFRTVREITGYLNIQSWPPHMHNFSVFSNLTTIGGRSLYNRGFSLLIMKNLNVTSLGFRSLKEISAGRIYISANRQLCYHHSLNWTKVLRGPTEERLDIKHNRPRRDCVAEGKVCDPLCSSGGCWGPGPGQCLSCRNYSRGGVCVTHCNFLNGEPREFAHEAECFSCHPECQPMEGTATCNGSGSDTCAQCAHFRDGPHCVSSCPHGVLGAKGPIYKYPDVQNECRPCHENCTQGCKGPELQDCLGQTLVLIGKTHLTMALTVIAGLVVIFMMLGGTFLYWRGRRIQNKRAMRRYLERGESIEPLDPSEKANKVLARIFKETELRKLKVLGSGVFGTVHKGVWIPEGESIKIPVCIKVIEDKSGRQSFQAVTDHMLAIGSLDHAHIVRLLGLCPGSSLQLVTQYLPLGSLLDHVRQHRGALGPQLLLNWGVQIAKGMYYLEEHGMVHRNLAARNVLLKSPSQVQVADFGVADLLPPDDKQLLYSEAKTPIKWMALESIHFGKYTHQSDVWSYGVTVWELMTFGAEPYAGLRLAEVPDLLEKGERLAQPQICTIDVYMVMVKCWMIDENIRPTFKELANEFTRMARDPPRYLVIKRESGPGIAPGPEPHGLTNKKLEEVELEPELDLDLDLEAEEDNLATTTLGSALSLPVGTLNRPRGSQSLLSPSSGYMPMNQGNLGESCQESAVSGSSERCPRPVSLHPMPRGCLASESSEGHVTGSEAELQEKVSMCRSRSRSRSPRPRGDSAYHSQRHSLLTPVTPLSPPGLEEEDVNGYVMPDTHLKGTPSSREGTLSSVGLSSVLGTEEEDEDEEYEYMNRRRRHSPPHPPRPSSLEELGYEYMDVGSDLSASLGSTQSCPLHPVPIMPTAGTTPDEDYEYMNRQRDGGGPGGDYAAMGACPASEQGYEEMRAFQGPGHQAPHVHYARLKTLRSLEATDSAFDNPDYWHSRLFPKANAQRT
T2 sequence (P21860 20-643): as the sequence (G7PIG5 entry or part of it) above, with K145R, Q151R, L166P, P180S, Y388H counted along it
T5 sequence (P21860 184-329): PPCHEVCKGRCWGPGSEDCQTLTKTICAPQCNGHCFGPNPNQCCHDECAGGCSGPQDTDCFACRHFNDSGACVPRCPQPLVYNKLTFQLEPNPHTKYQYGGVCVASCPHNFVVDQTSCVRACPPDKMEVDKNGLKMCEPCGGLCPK
T3 sequence (Q62799 20-643): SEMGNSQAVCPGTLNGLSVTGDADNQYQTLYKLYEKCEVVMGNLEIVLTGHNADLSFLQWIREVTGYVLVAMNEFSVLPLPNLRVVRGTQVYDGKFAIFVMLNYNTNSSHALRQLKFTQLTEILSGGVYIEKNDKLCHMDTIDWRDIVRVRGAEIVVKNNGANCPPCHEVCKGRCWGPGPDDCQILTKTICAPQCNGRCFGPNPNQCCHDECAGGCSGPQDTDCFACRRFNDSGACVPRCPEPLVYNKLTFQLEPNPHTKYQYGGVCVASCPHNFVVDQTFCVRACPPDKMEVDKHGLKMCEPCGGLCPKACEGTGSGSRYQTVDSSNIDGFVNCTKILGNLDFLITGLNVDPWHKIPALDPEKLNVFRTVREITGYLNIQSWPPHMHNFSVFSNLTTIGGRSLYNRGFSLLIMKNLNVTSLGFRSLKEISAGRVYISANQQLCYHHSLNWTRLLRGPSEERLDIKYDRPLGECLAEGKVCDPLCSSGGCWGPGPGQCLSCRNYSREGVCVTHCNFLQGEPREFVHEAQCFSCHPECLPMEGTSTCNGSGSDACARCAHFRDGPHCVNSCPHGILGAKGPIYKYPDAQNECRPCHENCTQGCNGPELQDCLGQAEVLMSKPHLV

B1: Humanized 1D9 Fc disabled antibody (antibody, V domains shown)
VH: QVQLVQSGAEVKKPGASVKVSCKASGYTFTSYWMHWVRQAPGQGLEWMGVIDPSDGYSHYNQKFKGKVTLTVDTSISTAYMELSRLRSDDTAVYYCAGGLAGTLDYWGQGTTVTVSS
VL: DIQMTQSPSSLSASVGDRVTITCRSSQSIVHSSGNTYLQWFQQKPGKAPKLLIYKVSNRFSGVPSRFSGSGSGTDFTLTISSLQPEDFAVYYCFQGSHVPWTFGQGTKLEIKR
notes: Humanized VH fused to a modified Fc domain incapable of mediating CDC/ADCC; also called humanized 1D9 H6L2 Fc disabled antibody
As for B1, the “Phospho-AKT ELISA IC50, heregulin induced, BxPC3 cells” value with Human HER3 receptor [1] was 0.0316 µg/mL. In addition, in experiment [2], the dissociation constant (Kd) stood at 4.49 nM, the koff amounted to 0.00122 s⁻¹ and the on-rate constant (kon) was 271000 M⁻¹ s⁻¹. In experiment [3], the Kd was 3.37 nM, the koff is 0.0011 s⁻¹ and the kon came out at 326000 M⁻¹ s⁻¹. In experiment [4], this molecule displayed a dissociation constant (Kd) of 1.73 nM, a koff of 0.00189 s⁻¹ and an association rate constant (kon) of 1.09e+06 M⁻¹ s⁻¹. For the same molecule, in the experiment with Human HER3 receptor [5], the “Phospho-HER3 ELISA IC50, heregulin induced, BxPC3 cells” value was 0.0107 µg/mL; the “Phospho-HER3 ELISA IC50, heregulin induced, CHL-1 cells” value came to 0.0399 µg/mL; the “Phospho-HER3 ELISA IC50, heregulin induced, N87 cells” value came to 0.0297 µg/mL; the “Phospho-HER3 ELISA IC50, heregulin induced, SK-BR-3 cells” value worked out at 0.0044 µg/mL. In addition, in experiment [6], the affinity, expressed as Kd, was 4.49 nM; the dissociation rate constant (koff) was found to be 0.00122 s⁻¹; the kon is 271000 M⁻¹ s⁻¹.

B2: Humanized 1D9 …B™ antibody (antibody, human IgG1, kappa)
heavy: QVQLVQSGAEVKKPGASVKVSCKASGYTFTSYWMHWVRQAPGQGLEWMGVIDPSDGYSHYNQKFKGKVTLTVDTSISTAYMELSRLRSDDTAVYYCAGGLAGTLDYWGQGTTVTVSSASTKGPSVFPLAPSSKSTSGGTAALGCLVKDYFPEPVTVSWNSGALTSGVHTFPAVLQSSGLYSLSSVVTVPSSSLGTQTYICNVNHKPSNTKVDKKVEPKSCDKTHTCPPCPAPELLGGPSVFLFPPKPKDTLMISRTPEVTCVVVDVSHEDPEVQFKWYVDGVEVHNAKTKPREEQFNSTFRVVSVLTVLHQDWLNGKEYKCKVSNKALPAPIEKTISKTKGQPREPQVYTLPPSREEMTKNQVSLTCLVKGFYPSDIAVEWESSGQPENNYKTTPPMLDSDGSFFLYSKLTVDKSRWQQGNIFSCSVMHEALHNHYTQKSLSLSPGK
light: DIQMTQSPSSLSASVGDRVTITCRSSQSIVHSSGNTYLQWFQQKPGKAPKLLIYKVSNRFSGVPSRFSGSGSGTDFTLTISSLQPEDFAVYYCFQGSHVPWTFGQGTKLEIKRTVAAPSVFIFPPSDEQLKSGTASVVCLLNNFYPREAKVQWKVDNALQSGNSQESVTEQDSKDSTYSLSSTLTLSKADYEKHKVYACEVTHQGLSSPVTKSFNRGEC
modifications: non-fucosylated glycans on the marked N* residue
notes: Chimeric IgG1/IgG3 Fc, expressed in FUT8- cells; also called humanized …B 1D9 antibody; humanized 1D9 H6L2 …B antibody
As to B2, the “Phospho-AKT ELISA IC50, heregulin induced, BxPC3 cells” value in the experiment with Human HER3 receptor [1] came out at 0.0108 µg/mL. The binding result with Human HER3 ECD domain II [7] is “no binding (tested: 10 ug/ml)”. For the same molecule, in the experiment with Human HER3 receptor [5], the “Phospho-HER3 ELISA IC50, heregulin induced, BxPC3 cells” value stood at 0.0026 µg/mL; the “Phospho-HER3 ELISA IC50, heregulin induced, CHL-1 cells” value came to 0.0311 µg/mL; the “Phospho-HER3 ELISA IC50, heregulin induced, N87 cells” value amounted to 0.0094 µg/mL; the “Phospho-HER3 ELISA IC50, heregulin induced, SK-BR-3 cells” value worked out at 0.0025 µg/mL. In the experiment with Human HER3 receptor [8], the “IC50 of heregulin induced phospho-AKT formation, BxPC3 cells” value stood at 0.0026 µg/mL. In experiment [6], this molecule returned a dissociation constant (Kd) of 2.06 nM, a koff of 0.00233 s⁻¹ and a kon of 1.13e+06 M⁻¹ s⁻¹.

B3: Chimeric 15D5 antibody (antibody, human IgG1, V domains shown)
VH: EFQLQQSGPELVKPGASVKISCKASGYSFTDYNMNWVKQNNGKSLEWIGGINPNYGTTVYNQKFKGKATLTVDQSSSTAYMQLVSLTSEDSAVYYCARMTTIVPFDYWGQGTTLTVSS
VL: DIQMTQTTFSLSASLGDRVTISCRASQDISNYLNWYQQKPDGTVKLLIYYTSTLHSGVPSRFSGSGSGTDYFLTIRNLEEEDIATYFCQQGYTLPWTFGGGTKLDIK
notes: To be rechecked; also called Ch15D5; ch15D5
On to B3, for which the Kd in experiment [9] is 3.19 nM; in the experiment with Human HER3 ECD domain II [10], 0.02 nM; in experiment [11] it was 0.87 nM; in the experiment with Human HER3 ECD domain II [12] it was 0.02 nM; in experiment [13] it was roughly 1 nM. Moreover, in [9], the dissociation rate constant (koff) was determined as 0.00014 s⁻¹. The results for the kon (in experiment [9]; with Human HER3 ECD domain II [10]; in [11]) were 44000 M⁻¹ s⁻¹, 3.82e+06 M⁻¹ s⁻¹ and 67900 M⁻¹ s⁻¹, respectively.

B4: Humanized 15D5 antibody (H4L1) (antibody, human IgG1, V domains shown)
VH: QVQLVQSGAEVKKPGASVKVSCKASGYTFTDYNMNWVRQAPGQGLEWMGGINPNYGTTVYNQKFKGKVTLTVDTSISTAYMELSRLRSDDTAVYYCARMTTIVPFDYWGQGTTVTVSS
VL: DIQMTQSPSSLSASVGDRVTITCRASQDISNYLNWYQQKPGKAPKLLIYYTSTLHSGVPSRFSGSGSGTDYTFTISSLQPEDIATYYCQQGYTLPWTFGGGTKVEIKR
notes: Human IgG1; also called h15D5
With B4, in [9], binding was put at a Kd of 2.62 nM, the off-rate constant (koff) stood at 0.000196 s⁻¹ and the kon was 74900 M⁻¹ s⁻¹. Further, in the experiment with Human HER3 ECD domain II [12], the Kd was found to be 0.074 nM. The molecule further had a Kd in experiment [13] of 3.5 nM.
